“Also recorded” adds a separate entry of the source.
Legend:
[1] = test system: TUBO cells; test: Growth and apoptosis of TUBO cells in vitro; type: cell-based, mouse; conditions: for percentage of apoptotic TUBO cells (Annexin V+): single agent
Description: FIG. 4A-FIG. 4J show how miR-26a chimera inhibits mouse breast cancer growth and protects from chemo-induced myelosuppression. FIG. 4A is a graph showing the binding of c-Kit-aptamer to TUBO cells. […] Cell count (left) and Annexin V^+ cells (%) (right) of the cells cultured with miR-26a chimera or the control (ctrl) were determined by flow cytometry. Asterisks denote the significant difference between ctrl chimera versus miR-26a chimera, and between ctrl chimera+5-FU versus miR-26a chimera+5FU. Data (mean±s.d.) were pooled from two experiments. FIG. 4C is a graph showing miR-26a expression in c-Kit^+ or c-Kit cells harvested from TUBO-derived tumors in BALB/c mice treated with miR-26a chimera (670 pmol/20 g) for 3 days. Data (mean+s.d.) were pooled from two experiments, involving a total of 6 mice per group. FIG. 4D is a graph showing Ezh2 expression in c-Kit^+ or c-Kit− cells harvested from TUBO-derived tumors in BALB/c mice treated with miR-26a chimera (670 pmol/20 g) for 3 days. Data (mean+s.d.) were pooled from two experiments, involving a total of 6 mice per group. FIG. 4E is a graph showing Bak1 expression in c-Kit^+ or c-Kit-cells harvested from TUBO-derived tumors in BALB/c mice treated with miR-26a chimera (670 pmol/20 g) for 3 days. Data (mean+s.d.) were pooled from two experiments, involving a total of 6 mice per group. FIG. 4F is a graph showing miR-26a expression in bone marrow (BM) detected by qPCR at 3 days after intravenous injection with the miR-26a chimera (670 pmol/20 g). Data (mean+s.d.) were pooled from two experiments, involving a total of 6 mice per group. FIG. 4G is a graph showing Bak expression in bone marrow (BM) detected by qPCR at 3 days after intravenous injection with the miR-26a chimera (670 pmol/20 g). Data (mean+s.d.) were pooled from two experiments, involving a total of 6 mice per group. FIG. 4H is a graph showing tumor volume over time. BALB/c mice bearing TUBO cells were treated with miR-26a chimera (670 pmol/20 g) (5 times, gray arrows) and 50 mg/kg 5-FU (3 times, dark grey arrows). Data (mean+s.d.) were pooled from two experiments, involving a total of 6 mice per group. There was significant difference between 5-FU only group versus miR-26a chimera only group (two way repeated-measures ANOVA followed by Bonferroni post-test for day0 to day18 (interaction p-value<0.001). FIG. 4I is a graph showing tumor volume over time after combinational treatment with 5-FU and chimeras. Data (mean+s.d.) were pooled from two experiments, involving a total of 6 mice per group. There was significant difference between 5-FU+ctrl chimera group versus 5-FU+miR-26a chimera group (two way repeated-measures ANOVA followed by Bonferroni post-test for day0 to day21, interaction p-value<0.0001). FIG. 4J is a graph showing the numbers of WBC and PLT in the tumor bearing mice 5 days after 5-FU treatment. Data (mean+s.d.) pooled from two experiments, involving a total of 6 mice per group. *P<0.05, **P<0.01.
A mouse TUBO breast cancer model was used to evaluate the therapeutic potential of miR-26a chimera for the myeloprotection and anti-tumor growth in breast cancer chemotherapy. Binding ability of an aptamer targeting mouse c-Kit to the TUBO cells was first tested by flow cytometry. […] To determine whether the mouse c-Kit-miR-26a chimera can inhibit the growth of mouse breast cancer cells in vitro, the TUBO cells were treated with increasing doses of miR-26a- or control-chimeras, and the viable cells counted under microscope at 2 days after the treatment.

[2] = test system: TUBO-derived tumors; test: Syngeneic TUBO breast tumor model in BALB/c mice; type: in vivo, mouse; conditions: for tumor size / growth, monotherapy: chimera 670 pmol/20 g 5 daily injections, 5-FU 50 mg/kg 3 times
Description: BALB/c mice bearing TUBO tumors were treated intravenously with miR-26a chimera (670 pmol/20 g) daily for 5 days. At days 2, 3, and 4, 50 mg/kg 5-FU was intravenously injected. Peripheral blood was collected 5 and 10 days after the initial 5-FU treatment. FIG. 9A is a series of graphs showing the numbers of WBC, RBC, and PLT 5 days after 5-FU treatment. FIG. 9B is a series of graphs showing the numbers of WBC, RBC, and PLT 10 days after 5-FU treatment. Data (mean+s.d.) were pooled from two experiments, involving a total of 6 mice per group. *, P<0.05, **, P<0.01. Xenograft model were generated 8-weeks old female immune-deficient NOD-scid IL2Rgamma^null (NSG™, Jackson Laboratories, Bar Harbar, Me., USA) using human breast cancer cell line. Syngeneic TUBO tumors were established in 8-weeks old female BALB/c mice (from Charles River Animal Facility, Frederick, Md., USA). These tumor-bearing mice were randomly assigned to each treatment group. Eight-week old male C57BL/6 mice and C57BL/6 ly5.2 mice (from Charles River Animal Facility, Frederick, Md., USA) were used for bone marrow transplantation assay. The mouse groups assigned for each treatment were not blinded. No statistical methods were used to pre-determined sample size for the analysis of mouse experiments. All the mice were maintained in the Research Animal Facility at Children's National Institute, Children's National Medical Center. The committee on the Use and Care of Animal at Children's National Institute approved all procedures involving experimental animals. For xenograft models, the NSG mice and BALB/c mice were subcutaneously injected with 2×10^6 viable MDA-MB-231 cells and TUBO cells in their right hind limbs, respectively. After the tumor grew to 1 cm in diameter, mice were randomly divided into the groups for each treatment. For no treatment control, 100 μl saline with 1% mouse serum was intravenously injected through tail vein. […] Tumor sizes were measured in two dimensions every 3 days. Tumor volume (V) was calculated using the following formula: V=(½) S^2×L (S. the shortest dimension; L, the longest dimension). […] For chimera treatment in normal mice, C57BL/6 mice were treated with miR-26a chimera (670 pmol/20 g) everyday for 3 days by intravenous injection. […] Peripheral bloods were collected at day 5 and day 10 after the 5-FU treatment. Complete blood counts were measured by Hemavet 950FS (Drew Scientific, Miami Lakes, Fla., USA).

| Molecule | reduction in tumor cell number ([1]; TUBO cells, 7 μM of 5-FU alone) | percentage of apoptotic TUBO cells (Annexin V+) [1] | leukocytes and thrombocytes after 5-FU ([2]; TUBO-tumor bearing mice, 5-FU 50 mg/kg x3) | tumor size / growth, monotherapy [2] | tumor cell number / effects, chimera in combination with 5-FU ([1]; TUBO cells, 5-FU 1 μg/ml (7 μM) plus chimera) | IC50 ([1]; TUBO cells, viable cells counted 2 days after treatment, chimera alone, read-out: IC50, reduction in tumor cell number) [nM] | TUBO cell growth (cell count) ([1]; chimera alone, increasing doses) | percentage of apoptotic TUBO cells, chimera in combination with 5-FU ([1]; combination) | tumor growth, 5-FU combined with chimera ([2]; 5-FU plus miR-26a chimera) | number of leukocytes (WBC) and thrombocytes (PLT), combination with 5-FU ([2]; TUBO-tumor bearing mice, 5 days after 5-FU) | 5-FU-induced leukopenia / myelosuppression in tumor-bearing mice ([2]; chimera daily for 5 days, 5-FU at days 2, 3, 4) |
| --- | --- | --- | --- | --- | --- | --- | --- | --- | --- | --- | --- |
| O=c1[nH]cc(F)c(=O)[nH]1 [5-FU, 5-fluorouracil, reference compound] | less than 20% | increased | significant leukopenia and thrombocytopenia | growth retardation | – | – | – | – | – | – | – |
| miR-26a chimera: mouse c-Kit DNA aptamer-C3-passenger RNA, passenger RNA-TEG-cholesterol and miR-26a-5p guide strand annealed (SEQ ID NO:6/7, 8, 9) (nucleic acid, chemistry not fully specified) chain 1: GCTCAACGCGGGACGGCTCTCCCATTGAC chain 2: CCUAUUCUGG chain 3: GUUACUUGCACG guide: UUCAAGUAAUCCAGGAUAGGCU | – | induced apoptosis; also recorded: increased | – | significant decrease of tumor size; also recorded: more effective than 5-FU treatment | enhanced these effects; also recorded: synergistically reduced tumor cells | ~83 | suppressed the growth; also recorded: dose-dependent reduction | increased | most effective growth retardation | nearly doubled | ameliorates 5-FU induced myelosuppression; also recorded: largely prevented leukopenia |
